Reference: the RNAGym collection of RNA variant scans (doi:10.1073/pnas.2313332121)
Fewer inactive variants are shown than the library holds.

B1: TPR 5TU (parent)
chain: GGAUCUUCUCGAUCUAACAAAAAAGACAAAUCUGCCACAAAGCUUGAGAGCAUCUUCGGAUGCAGAGGCGGCAGCCUUCGGUGGCGCGAUAGCGCCAACGUUCUCAACUAUGACACGCAAAACGCGUGCUCCGUUGAAUGGAGUUUAUCAUG

Variants of: B1
Test: polymerase ribozyme fitness, log enrichment relative to wild type (log ratio); higher = more active; in vitro selection for triplet polymerase activity
Method in brief: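 Mutant libraries for each subunit of a heterodimeric triplet polymerase ribozyme were made by PCR and then transcribed. Each library underwent one round of in vitro selection in triplicate: annealing with a biotinylated primer, the partner subunit and triplets, frozen incubation at −7 °C, gel excision of extended constructs, streptavidin-bead capture and RT-PCR. Input and output libraries were Illumina-sequenced, and only genotypes with ≥10 input reads and ≥1 read per output were kept. Fitness is the logarithm, base 2, of genotype enrichment over wild-type enrichment, computed from inverse-variance-weighted replicate averages.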

Variant | polymerase ribozyme fitness (log ratio)
GGAUCGUCUCGAUCUAACAAAACAGACAAAUCUGCCACAAAGCUUGAGAGCAUCUUCGGAUGCAGAGGCGGCAGCCUUCGGUGGCGCCAUAGCGCCUACGUUCUCAACUAUGACACGCAAAACGCGUGCUCCGUUGAAUGGAGUUUAUCAUG | ≤ -4.2
GGAUCUUCUCGAUCUAACAAAAAAGACAAAUCUGCCACAAAGCUUGAGAGCAUCUUCGGAUGCAGAGGCGGCAGCCUUCGGUGGCGCGAUAGGGCCAACGUUCUCAACUAUGACACGCAAAACGCGUGCUCCGUUGAAUGGAUUUUAUCAUG | -4.04
GGAUCUUCUCGAUCUAACAAAAAAGACAAAUCUGACACAAAGCUUGAGAGCAUCUUCGGAUGCAGAGGCGGCAGCCUUCGGUGGCGCGAUAGCCCCAACGUUCUCGACUAUGACACGCAAAACGCGUGCUCCGUUGAAUGGAGUUUAUCAUG | -3.77
GGAUCUUCUCGAUCUAACAAAAAAGACAAAUCUGCCACAAAGCUUGAGACCAUCUUUGGAUGCAGAGGCGGCAGCCUUCGGGGGCGCGAUAGCGCCAACGUUCUCAACUAUGACACGCAAGACGCGUGCUCCGUUGAAUGGACUUUAUCAUG | ≤ -4.2
GGAUCUUCUCGAUCUAACAAAAAAGACAAAUCUGCCACAAAGAUUGAGAGCAUCUUCGGAUGCAGAGGCGGCAGCCUUCGGUGGCGCGAUAGCGCCAACGUUCUCAACUAUGACACGCAAAACGCGUGCUCCGUUGAAUGGAGUUUAUCAUG | -4
GGAUCUUCUCGAUCGAACAAAAAGGACAAAUCUGUCACAAAGCUUGAGAGCAUCAUCGGAUGCAGAGGCGGCAGCCGUCGGUGGCGCGAGAGCACCUACGUUCUCAACUAUGACACGCAAAACGCGUGCUCCGUUGAAUUGAGUUUAUCAUG | ≤ -4.2
GGAUCUUCUCGAUCUAACAAAAAAGACAAAUCUGCCACAAAGCUUGAGAGCAUCUUCGGAUGCAGAGGCGGCAGCCUUCGGUGGUGCGAUAGCGCCAACGUUCUCAACUAUGACACGCAAAACGCAUGCUCCGUUGAAUGGAGUUUAUCAUG | 0.641
GGAUCUUCUCGAACUAACAGAAAAGACAAAUCUGCCACAAAGCUUGAGAGCAUCUUCGGAUGGAGAGGCGGCAGCCUUCGGUGGCGCGAUUGCGCCAACGUUCUCAACUAUGACACGCAAAACGCGUGCUCCGUUCAAUGGAGUUUAUCAUG | ≤ -4.2
GGAUCUUCUCGAUCUAACAAAAAAGAGAAAUCUGCCACAAAGCUUGAGAGCAACAUCGGAUGCAGAGGCGGCAGCCUUCGGUGGCGCGAUGGCGCCAACGUUGUCAACUAUGACACGCAAAACGCGUGCUCCGUUGUAUGGAGUUUAUCAUG | ≤ -4.2
GGAUCUUCUCGAUCUUACACAAAAGAUAAAUCUGCCUCAAAGCUUGAGAGCAUCUUCGCAUGCCGAGGCGGCAGCCUUCGGUGGUGCGAUAGCGCCAACGUUCUCAACUAUGGCACGCAUAACGCGUGCUCUGUUGAAUGGAGUUUAUCAUG | ≤ -4.2
GGAUCUUCUCGAUCUAACAAAAAAGACAAAUCUGUCACAAAGCUUGAGAGCAUCUUCGGAUGCAGAGGCGGCAGCCUUCGGUGGCGCGAUAGCGUCAACGUUCUCAACUAUGACACGCAAAACGCGUGCUCCGUUGAAUGGAGUUUAUCAUG | -1.1
GGAUCUUCUCGAUCUAACAACAAAGAUAAAUCUGCCACAAAGCUUGAGAGCAUCUUCGCAUGCAGAGGAGGCAGCCUUCGGUGGCGCGAUAGCGCCAACGUUCUCAACUAUGACACGCAAAACGCGUGCUCCGUUGAAUGGAGUUUAUCAUG | -3.75
GGAUCUUCUCGAUCUAACAAAAAAGACAAAUCUGCCACAAGGCUCGAGAGCAUCUUUGGAUGCAGAGGCGGCAGCCUUCGGUGGCGCGAUAACGCCAACGUUCUCAAGUAUGACACGCAAAACGCGUGCUCCGUUGAAUGGAGUUUAUCAUG | -3.34
GGAUCUUCUCGAUCUAACAAAAAAGACAAAUCUGCCACAAAGCUUGAGAGCAUCUUCGGAUGUAGAGGCGGCAGCCUUCGGUCGCGCGAUAGCGCUAACGUUCUGAACUAUGACACUCAAAACGCGUGCUCCGUUGAAUGGAGUUUAUCAUG | -2.06
GGAUCUUCUCGAUCUAACAAAAAAGACAAAUCUGCCACAAAGCUUGAGAGCAUCUUCGGAUGCAGAGGCGGCAGCCUUCGGUGGCGCGAUAGCGCCAAAGUUCUCAACUAUGACACGCAAAACGCGUGCUCCGUUGAAUGGAGUUUAUCAUG | -0.806
GGAUCUUCUCGAUCUAACAAAAAAGACAAAUCUGCCACAAAGCUUGAGAGCAUCUUCGGAUGCAGCGGCGGCAGCCUUCGGUGGCGCGAUAGCGCCAACGUUCUCGACUAUGACACGCAAAACGCGUGCUCCGUUGAAUGGAGGUUAUCAUG | ≤ -4.2
GGAUCUUCUCGAUUUGACAAAAAAGACAAAUCUGCCACAAAGCUUGAGAGCAUCUACGGAUGCAGAGGCGGCAGCCUUCGGUGGCGCGAUAGCGCCAACGUUCUCAACUAUGACACGCAAAACGCGUGCUCCGUUGAAUGGAGUUUAUCAUG | -2.11
GGAUCUUCUCGAUCUAACAAAAAAGACAAAUCUGCCACAAAGCUUGAGAGCAUCUCCGGAUGCAGAGGAGGCAGCCUUCGGUGGCGCGAUAGCGCCAACGUUCUCAACUAUGACACGCAAAACGCGUGCUCCGUAGAAUGGAGUUUAUCAUG | -3.01
GGAUCUUCUCGAUCUAACAAAAAAGACAAAUCUGCCACAAAGCUUGACAACAUCUUCGGAUGCAGAGGCGGCAGCCUUCGUUGGCGCGAUAGCGACAACGUUCUCAACUAUGACACGCAAAACGCGUGCUCCGUUGAAUGGAGUUGAUCAUG | -3.35

Variant | polymerase ribozyme fitness (log ratio)
GGAUCUUCUCGAUCUAACAAAAAAGACAAAUAUGCCACAAAGCUUGAGUGCAUCUUCGGAUGCAGAGGCGGAAGCCUUCGGUGGAGCGAGAGCGCCAGCGUUCUCAACUAUGACACGCACAACGCGUGCUCCGUUGAAUGGAGUUUAUCAAG | ≤ -4.2
GGAUCUUCUCGAUCUAACAAGAAAGACAAAUCUGCCACAAAGCUUGAGAGCGUCUUCGGAUGCAGAGGCGGCAGCCUUCGGUGGUGCGAUAGCGCCAACGUUCGCAACUAUGACACGCAAAACGCGUGCUCCGUUGAAUGGAGUUUAUCAUG | -0.132
GGAUCUUCUCGAUCUAACAAAAAAGACAAAUCUGCCACAAAGCUUGAAAGCAUCUUCGGAUGCAGAGGCGGCAGCCUUCGGUGGCGCGAUAGCGCCAACGUUCUCAACUAUGACACUCAAAACGCGUGCUCCGUUGAAUGGAGUUUAUCAUG | -0.676
GGAUCUUCUGGAUCUAACAAAAAAGACAAAUCUGCCACAAAGCUUGAGAGCAUCUUCGGAUGCAGAGGCGGCAGCCCUCGGUGGCGCGAAAGCGCCAACGUUCUCAACUAUGACACGCGAAACGCGUGCUCCGUUGGAUGGAGUUUAUCAUG | ≤ -4.2
GGAUCAUCUCGAUCUAACAAACAAGACAAAUCUGCCACUAAGCAUGAGAGCAUCUUCGGAUGCAGAGGCAGCAGCCUUCGGUGGCGCGAUAGCGCCAAAGUUCUCAACUAUGACACGCAAAACGCGUGCUCCGUUGAAUGGAGUUUAUCAUG | ≤ -4.2
GGAUCUUCCCGAUCUAACAAAAAAGACAAAUCUGCCACAAAGCUUGAGAGCAUCUUCGGAUGCAGAGGCGGCAGCCUUCGGUGGCGCGAUAGCGCCGACGUUCUCAACUAUGACACGCAAAACGCGUGCUCCGUUGAAUGGAGUUUAUCAUG | -2.82
GGAUCUUCUCGAUCUAACAAAAAAGACAAAUCUGCCACAAAGCUUGAGACCAACUUCGGAUGCAGAGGCGGCAGCCUUCGGUGGCGCGAUAGCGCCAACGUUCUCAACUAUGACACGCAAAACGCGUGCUCCGUUGAAUGGAGUUUAUCAUG | -3.26
GGAUCUUCUCGAUCUAACAAAAAAGACAAAUCUGCCACAAAGCUUGUGAGCAUCUUCGGAAGCAGAGGCGGCAGCCUUCGGUGGCGCGAUAGCGCCAACGUUCUCAACUAUGACACGUAAAACGCGUGCUCCGUUGAAUGGAGUUUAUCAUG | -2.01
GGAUCUUAUCGAUCUAACCAAAAAGACAAAUCUGCCACAAAGCUUGAGAGCAUCUUCGGAUGCAGAGGCGGAAGCCUUCGGUGGCGCGAUAGCGAGAACGUUCUCAACUAUGACACGCAAAACGCGUGCUUCGUUCAAUGGAGUUUAUCAUG | ≤ -4.2
GGAGCUUCUCGAUCUAACAAAAAAGACAAGUAUGCCACAAAGCUUGAGAGCAUCUUCGGAUGCAGAGGCGGCAGCCUUCGGUGGAGCGAUAGCGCCAACGUUCUCAACUAUGACACGCAAAACGCGUGCUCCGUUGAAUGCAGUUUAUCAUG | ≤ -4.2
GGAUCUUCUCGAUCUAACUAAAUAGACAAAUCUGCCACAAAGCUUGAGAGCAUCUUCGGAAGCAGAGGCGGCAGCCUUCGGUGGCGCGAUAGCGCCAAAGGUCUCAACUAUGACACGCAAAACGCGUGCUCCGUUCCAUGGAGUAUAUCAUG | ≤ -4.2
GGAUCUUCUCGAUCUAUCAAAACAGACAAAUCUGCCCCAACGCUUGAGAGCAUCUUCGGAUGCAGAGGCGGCAGCCUUCGGUGGCGCGAUAGCGCAAACGUUCUCAACUAUGACACGCAAAACUCGUGCUCCGUUGAAUGGAGUUUAUCAUG | ≤ -4.2
GGAUCUUCUCGCUCUAACAAAAAAGACAAAUCUGGCACAAAGCUUGAGAGCAUCUGCGGAUGCAGAGGCGGCAGCCUUCACUGGCGCGAUAGCGCCAACCUUCUCAACUAUGACAUGCAAAACGCGUGCUCCGUCGAAUGGAGUUUAUCAUG | ≤ -4.2
GGAUCUUCUCGAUCUAACAAAAACGACAAAUCUGCCACAAAGCUUGAGAGCAUCUACGGAUGCAGAGGCGGCAGCCUUCGGUGGCACGAUAGCGCCAACGUUCUCAACUAUGACACGCAAAACGCGUGCUCCGUUGAAUGGAGUUUAUCGUG | ≤ -4.2
GGAUCUUCUCGAUCUAACAAAAAAGACAAAUCUGCCUCAAAGCUUGAGAGCAUCUUCGGAUGCAGAGGCGGCAGCCUUCGGUGGCGCGCUAGCGCCAACGUUCUCAACUAUGACACGCAAAACGCGUGCUCCGUUGAAUGGAGUUUAACAUG | ≤ -4.2
GGAUCUUCUCGAUCUAACAAAAAAGACAAAUCUGCCACAAAGCUUGAGAGCAUCUUCGGAUGCAGAGGCGGCAGCCUUCGGUGGCGCGAUACCGCCAACGUUCUCAACUAUGACACGCGAAACGCGUGCUCCGUUGAAUGGAGUUUAUCAUG | 0.0407
GGAUCUUCUCGAUCUAACAAACAAGACAAAUCUGCCAUAAAGCUUGAGAGCAUCUUCGGAUGCAGAGGCGGCAGCCUUCGGUCGCGCGAUAGCGCCAACGUUCUCAACUAUGACACGCAAAGCGCGUGCUCCGUUGAAUGUAGUUUAUCAUG | 0.178
GGAUCUUCUCGAUCUAACAAAAAAGACAAAUCUGCCACAAAGCUUGAGAGCAUCAUCGGAUGCAGAGGCGGCAGCGUUCGGUGGCGCGAUAACGCCAACGUUCUCAACUAUGACACGCAAAGCGCGUGCUCCGUUGAAUGGAGUUUAUCAUG | ≤ -4.2
GGAUCUUCUCGAUCUAACAAAAAUGACAAAUCUGCCACAAAGCUUGCCAGCAUCUUCGGAUGCAGAGGCGGCAGCCUUCGGUGGGGCGAUGGCGCCAACGUUCUCAACUAUGACACGCAAAACGCGUGCUCCGUUGAAUGGAGUUUAUCAUG | ≤ -4.2
